Source: PMC7062184, “A lipoprotein lipase–GPI-anchored high-density lipoprotein–binding protein 1 fusion lowers triglycerides in mice: Implications for managing familial chylomicronemia syndrome” (The Journal of Biological Chemistry, 2019)
Blank lines part the entries; values can stand above or below the binder they belong to.

B2: Soluble GPIHBP1(21–151)-FLAG-His6-Avi (domain or fragment, human)
chain: QTQQEEEEEDEDHGPDDYDEEDEDEVEEEETNRLPGGRSRVLLRCYTCKSLPRDERCNLTQNCSHGQTCTTLIAHGNTESGLLTTHSTWCTDSCQPITKTVEGTQVTMTCCQSSLCNVPPWQSSRVQDPTG
modifications: biotin on the C-terminal AviTag (BirA) where immobilised or labelled with streptavidin-D2; nonbiotinylated as free competitor in TR-FRET
notes: human GPIHBP1, soluble fragment of residues 21–151; also called GPIHBP1-Avi; hGPIHBP1-Avi; source: HEK293T, transfected, purified (Ni-NTA); also co-expressed with LPL and LMF1 in HEK293T and purified as the complex (Ni-NTA, SEC); not shown: AviTag, C-terminal, kept
B4: His6-TEV-LPL (N-terminally His6-tagged human lipoprotein lipase) (enzyme)
chain: ADQRRDFIDIESKFALRTPEDTAEDTCHLIPGVAESVATCHFNHSSKTFMVIHGWTVTGMYESWVPKLVAALYKREPDSNVIVVDWLSRAQEHYPVSAGYTKLVGQDVARFINWMEEEFNYPLDNVHLLGYSLGAHAAGIAGSLTNKKVNRITGLDPAGPNFEYAEAPSRLSPDDADFVDVLHTFTRGSPGRSIGIQKPVGHVDIYPNGGTFQPGCNIGEAIRVIAERGLGDVDQLVKCSHERSIHLFIDSLLNEENPSKAYRCSSKEAFEKGLCLSCRKNRCNNLGYEINKVRAKRSSKMYLKTRSQMPYKVFHYQVKIHFSGTESETHTNQAFEISLYGTVAESENIPFTLPEVSTNKTYSFLIYTEVDIGELLMLKLKWKSDSYFSWSDWWSSPGFAIQKIRVKAGETQKKVIFCSREKVSHLQKGKAPAVFVKCHDKSLNKKSG
notes: human lipoprotein lipase; also called His6-LPL; hLPL; not shown: His6, N-terminal, kept
B5: His6-LPL-HA-FLAG (enzyme, human)
chain: ADQRRDFIDIESKFALRTPEDTAEDTCHLIPGVAESVATCHFNHSSKTFMVIHGWTVTGMYESWVPKLVAALYKREPDSNVIVVDWLSRAQEHYPVSAGYTKLVGQDVARFINWMEEEFNYPLDNVHLLGYSLGAHAAGIAGSLTNKKVNRITGLDPAGPNFEYAEAPSRLSPDDADFVDVLHTFTRGSPGRSIGIQKPVGHVDIYPNGGTFQPGCNIGEAIRVIAERGLGDVDQLVKCSHERSIHLFIDSLLNEENPSKAYRCSSKEAFEKGLCLSCRKNRCNNLGYEINKVRAKRSSKMYLKTRSQMPYKVFHYQVKIHFSGTESETHTNQAFEISLYGTVAESENIPFTLPEVSTNKTYSFLIYTEVDIGELLMLKLKWKSDSYFSWSDWWSSPGFAIQKIRVKAGETQKKVIFCSREKVSHLQKGKAPAVFVKCHDKSLNKKSG
notes: human lipoprotein lipase; Used as the complex with biotinylated hGPIHBP1-Avi in the TR-FRET assay; also called His6-hLPL-HA-FLAG; source: HEK293T, co-transfected with GPIHBP1 and LMF1, complex purified (Ni-NTA, SEC); not shown: His6, N-terminal, kept; HA, C-terminal, kept; FLAG, C-terminal, kept

Tests used:
[1] = target: B4; assay: cell-based or functional assay
[2] = target: T1, LPL (untagged human lipoprotein lipase) (human); assay: cell-based or functional assay
T1 chain: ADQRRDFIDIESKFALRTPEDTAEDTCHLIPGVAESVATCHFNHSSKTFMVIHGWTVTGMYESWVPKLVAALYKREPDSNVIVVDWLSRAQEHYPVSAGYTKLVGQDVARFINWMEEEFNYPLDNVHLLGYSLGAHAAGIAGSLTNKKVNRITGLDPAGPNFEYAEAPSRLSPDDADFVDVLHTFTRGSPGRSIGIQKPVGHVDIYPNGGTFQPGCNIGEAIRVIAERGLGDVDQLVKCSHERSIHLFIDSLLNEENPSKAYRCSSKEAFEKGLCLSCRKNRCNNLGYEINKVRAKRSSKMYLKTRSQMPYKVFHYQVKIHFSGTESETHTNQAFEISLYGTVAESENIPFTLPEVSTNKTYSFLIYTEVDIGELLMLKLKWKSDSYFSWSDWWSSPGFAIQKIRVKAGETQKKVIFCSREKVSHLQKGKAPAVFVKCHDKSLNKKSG

[3] = target: T2, His6-LPL-HA-FLAG (human); assay: FRET; dissociation of LPL(HA)-GPIHBP1(Avi) complex (10 nM)
T2 chain: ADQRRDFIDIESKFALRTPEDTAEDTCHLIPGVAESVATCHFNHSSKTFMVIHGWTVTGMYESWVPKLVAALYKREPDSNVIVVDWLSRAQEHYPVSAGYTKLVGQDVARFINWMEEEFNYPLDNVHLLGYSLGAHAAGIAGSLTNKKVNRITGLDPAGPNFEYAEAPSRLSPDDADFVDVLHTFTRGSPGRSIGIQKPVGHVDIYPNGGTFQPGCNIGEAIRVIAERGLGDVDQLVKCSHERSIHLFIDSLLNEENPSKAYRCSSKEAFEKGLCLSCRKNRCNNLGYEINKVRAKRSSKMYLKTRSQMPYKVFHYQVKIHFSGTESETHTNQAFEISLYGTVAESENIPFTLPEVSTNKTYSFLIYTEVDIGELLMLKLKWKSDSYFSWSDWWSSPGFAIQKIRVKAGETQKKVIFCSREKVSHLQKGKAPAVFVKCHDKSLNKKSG

[4] = target: B5; assay: FRET or BRET; TR-FRET; 10 nM His6-hLPL-HA-FLAG/biotinylated hGPIHBP1-Avi complex challenged with 1–1000 nM nonbiotinylated ANGPTL4, ANGPTL3 or GPIHBP1, 1 h room temperature; 20 mM HEPES pH 7.4, 100 mM NaCl, 10% heat-inactivated FBS, 5 mM CaCl2; anti-HA-Tb and streptavidin-D2; settings: both partners purified
[5] = target: T2, His6-LPL-HA-FLAG; assay: FRET
[6] = target: B4; assay: SEC; His6-LPL, GPIHBP1 and LMF1 co-transfected 3:1:1 in HEK293T; complex captured from the medium by Ni-affinity, then Superdex 200 in 10 mM Tris pH 7.5, 300 mM NaCl; eluted at ~75 kDa; settings: both partners purified
[7] = target: B2; assay: ELISA; 10 nM LPL/GPIHBP1 complex or fusion, biotinylated at the C-terminal AviTag of GPIHBP1, incubated with ANGPTL4 (12-point 2-fold dilution from 100 nM), then applied to a streptavidin-coated MSD plate; LPL and ANGPTL4 detected with specific antibodies; settings: both partners purified
[8] = target: B2; assay: FRET or BRET; TR-FRET; 10 nM His6-hLPL-HA-FLAG/biotinylated hGPIHBP1-Avi complex challenged with 1–1000 nM nonbiotinylated ANGPTL4, ANGPTL3 or GPIHBP1, 1 h room temperature; 20 mM HEPES pH 7.4, 100 mM NaCl, 10% heat-inactivated FBS, 5 mM CaCl2; anti-HA-Tb and streptavidin-D2; settings: both partners purified
[9] = target: T2, His6-LPL-HA-FLAG; assay: FRET; competition: dissociation of LPL(HA)/GPIHBP1(Avi) complex
[10] = target: T3, LPL(28–475)-(G4S)4-hGPIHBP1(21–151)-FLAG-His6-Avi (human, biotin on the C-terminal AviTag (BirA) in ELISA and SPR); assay: cell-based or functional assay
T3 chain: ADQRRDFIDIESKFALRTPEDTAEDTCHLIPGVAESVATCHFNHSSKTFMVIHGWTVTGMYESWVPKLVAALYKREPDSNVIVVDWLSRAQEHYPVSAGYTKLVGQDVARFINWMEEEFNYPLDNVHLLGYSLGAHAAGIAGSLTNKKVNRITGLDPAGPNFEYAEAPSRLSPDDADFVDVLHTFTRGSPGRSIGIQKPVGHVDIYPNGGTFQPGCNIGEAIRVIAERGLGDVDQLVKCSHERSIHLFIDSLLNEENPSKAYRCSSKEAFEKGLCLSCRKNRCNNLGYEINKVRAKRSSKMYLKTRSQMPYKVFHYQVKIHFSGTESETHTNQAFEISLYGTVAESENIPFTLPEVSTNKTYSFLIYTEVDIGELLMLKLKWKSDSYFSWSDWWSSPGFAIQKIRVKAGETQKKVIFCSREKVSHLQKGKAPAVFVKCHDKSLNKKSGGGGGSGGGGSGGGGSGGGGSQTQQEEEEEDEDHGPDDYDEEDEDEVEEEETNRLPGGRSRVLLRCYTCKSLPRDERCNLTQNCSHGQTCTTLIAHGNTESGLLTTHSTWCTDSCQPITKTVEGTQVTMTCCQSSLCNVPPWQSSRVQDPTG

- IC50 of ANGPTL3-mediated inactivation of 10 nM coexpressed LPL/GPIHBP1 complex, hydrolysis of VLDL [1]: 300 nM
- IC50 of ANGPTL3-mediated inactivation of 10 nM LPL alone, hydrolysis of VLDL [2]: 8 nM
- IC50 [3]: 100 nM
B1: ANGPTL3(17–460)-FLAG-His6-Avi (natural protein)
chain: SRIDQDNSSFDSLSPEPKSRFAMLDDVKILANGLLQLGHGLKDFVHKTKGQINDIFQKLNIFDQSFYDLSLQTSEIKEEEKELRRTTYKLQVKNEEVKNMSLELNSKLESLLEEKILLQQKVKYLEEQLTNLIQNQPETPEHPEVTSLKTFVEKQDNSIKDLLQTVEDQYKQLNQQHSQIKEIENQLRRTSIQEPTEISLSSKPRAPRTTPFLQLNEIRNVKHDGIPAECTTIYNRGEHTSGMYAIRPSNSQVFHVYCDVISGSPWTLIQHRIDGSQNFNETWENYKYGFGRLDGEFWLGLEKIYSIVKQSNYVLRIELEDWKDNKHYIEYSFYLGNHETNYTLHLVAITGNVPNAIPENKDLVFSTWDHKAKGHFNCPEGYSGGWWWHDECGENNLNGKYNKPRAKSKPERRRGLSWKSQNGRLYSIKSTKMLIHPTDSESFE

Binder: B2
- binding result [4]: binds
- IC50 [5]: 15 nM

- stoichiometry N [6]: 1
B3: Soluble GPIHBP1(21–151), untagged (domain or fragment, human)
chain: QTQQEEEEEDEDHGPDDYDEEDEDEVEEEETNRLPGGRSRVLLRCYTCKSLPRDERCNLTQNCSHGQTCTTLIAHGNTESGLLTTHSTWCTDSCQPITKTVEGTQVTMTCCQSSLCNVPPWQSSRVQDPTG
notes: human GPIHBP1, soluble fragment of residues 21–151 (part of the extracellular domain); also called untagged GPIHBP1

Binder: B4
- binding result [7]: binds

Binder: B5
- binding result [8]: binds

- IC50 [9]: 18 nM
- IC50 of ANGPTL4-mediated inactivation of 10 nM coexpressed LPL/GPIHBP1 complex, hydrolysis of VLDL [1]: 19 nM
- IC50 of ANGPTL4-mediated inactivation of 10 nM fusion protein against that of LPL alone, hydrolysis of VLDL [10]: 36 fold
- IC50 of ANGPTL4-mediated inactivation of 10 nM fusion protein against that of the coexpressed LPL/GPIHBP1 complex, hydrolysis of VLDL [10]: 6 fold
- IC50 of ANGPTL4-mediated inactivation of 10 nM LPL alone, hydrolysis of VLDL [2]: 3 nM
- IC50 [3]: 10 nM
B6: ANGPTL4(26–406)-FLAG-His6-Avi (natural protein)
chain: QPGPVQSKSPRFASWDEMNVLAHGLLQLGQGLREHAERTRSQLSALERRLSACGSACQGTEGSTDLPLAPESRVDPEVLHSLQTQLKAQNSRIQQLFHKVAQQQRHLEKQHLRIQHLQSQFGLLDHKHLDHEVAKPARRKRLPEMAQPVDPAHNVSRLHRLPRDCQELFQVGERQSGLFEIQPQGSPPFLVNCKMTSDGGWTVIQRRHDGSVDFNRPWEAYKAGFGDPHGEFWLGLEKVHSITGDRNSRLAVQLRDWDGNAELLQFSVHLGGEDTAYSLQLTAPVAGQLGATTVPPSGLSVPFSTWDQDHDLRRDKNCAKSLSGGWWFGTCSHSNLNGQYFRSIPQQRQKLKKGIFWKTWRGRYYPLQATTMLIQPMAAEAAS
